Laboratory results as given in patent publication US20250313624A1.

Key:
[1] = biological target: discoidal lipid bilayer-membrane scaffold protein complex including GPCR1 transmembrane protein (human); test: Octet assay; biotinylated complex with GPCR1 captured on streptavidin through the Bir-A tag of the membrane scaffold protein (FIG. 1B)
[2] = biological target: control discoidal lipid bilayer-membrane scaffold protein complex without GPCR1 (empty complex); test: Octet assay; biotinylated empty complex captured on streptavidin through the Bir-A tag of the membrane scaffold protein (FIG. 1B)

Octet response [1]: 3 nm
Octet response [2]: 0.69 nm
Substance: streptavidin tethered to plates (from UniProt P22629 37-163)
